These are literature values, as cited in paper PMC10979411.

The target of the series is Nterm (UniProt position 44, ADPEAGIGAVL). As to the kind of experiment: NMR. The following applies: micelle-associated melittin.

Consider “Melittin (Apis mellifera (inferred; organism not stated in the article))”, for which the pKa is on record as 7.15–8.15.
